Test results from paper PMC4400868.

Experiment: AUC

Question: For “Leucine-rich amelogenin protein, phosphorylated at S16 (LRAP(+P))”, which “% monomers (2.5 mM CaCl2, pH 7.4)” value is on record?
Answer: 94% monomers

Question: And the monomer % (0.78 mg/mL, 50 mM NaCl, pH 7.4)?
Answer: 93.6%

Question: And the monomer % (0.78 mg/mL, 50 mM NaCl, pH 8.0)?
Answer: 92.3%

Question: What about the monomer % (0.92 mg/mL, 150 mM NaCl, pH 8.0) of the same substance?
Answer: 92.6%

Question: And the monomer % (0.92 mg/mL, 200 mM NaCl, pH 8.0)?
Answer: 97.9%

Question: What about the monomer % (1.0 mg/mL, 50 mM NaCl, pH 5.8) of the same substance?
Answer: 84.4%

Question: And the monomer % (1.0 mg/mL, 150 mM NaCl, pH 5.8)?
Answer: 90.9%

Question: And the monomer % (1.0 mg/mL, 150 mM NaCl, pH 7.4)?
Answer: 93.9%

Question: What about the monomer % (1.0 mg/mL, 200 mM NaCl, pH 5.8) of the same substance?
Answer: 94.5%

Question: What about the monomer % (1.0 mg/mL, 200 mM NaCl, pH 7.4) of the same substance?
Answer: 97.7%
